Experimental data as given in patent US20110076265A1 (POMONA RICERCA S R L, published 2011).

Key:
[1] = biological target: HA protein (H1-subtype hemagglutinin) of influenza A virus A/PR/08/1934 (influenza A virus A/PR/08/1934 (H1N1), UniProt P03452 18-565); assay: immunofluorescence on fixed, permeabilized infected cells, Fab49 at 100 µg/ml
[2] = biological target: H1-subtype hemagglutinin of influenza A virus A/Wilson-Smith/33 (influenza A virus A/Wilson-Smith/33 …, UniProt P03454 18-565); assay: ELISA, sequential dilutions of purified Fab on infected cell lysates
[3] = biological target: T1, H3-subtype hemagglutinin of influenza A virus A/Aichi/2/68 (H3N2) (influenza A virus A/Aichi/2/68 (H3N2), UniProt P03437 17-566); assay: immunofluorescence on fixed, permeabilized infected cells
T1 construct: also called A/Aichi/2/68 (ATCC VR-547)

[4] = biological target: Hemagglutinin of influenza B virus B/Lee/40 (influenza B virus B/Lee/40, UniProt P03460 16-584); assay: as above

B1: Fab49 (human monoclonal Fab fragment produced by bacterial clone INF49) (Fab, V domains shown)
VH: LESGGGLVQPGGSLRLSCAASGITFSSYAMSWVRQAPGKGLEWVSTVNSGGGSTYYGDSVRGRFTISRDNSKSTLYLQLNSLRAEDTAIYYCAKDKGRPIFGLVTPSYYMDVWGNGT
VL: ELTQSPSSLSASVGDSVTITCRTSERISTYLNWYQQKPGKAPRLLVSGASTLQGGVPSRFSGSGSGTAFTLTINSLQPEDFATYYCQQSYSTPLTFGGGT
- binding result [1]: binds
- binding result [2]: binds
- binding result [3]: no binding (tested: 100 µg/ml)
- binding result [4]: no binding (tested: 100 µg/ml)
